Data reported in patent publication US20240026343A1, “METHOD FOR SCREENING DIMERIZED CYCLIC PEPTIDE” (AJINOMOTO CO., INC., priority 2021, published 2024).
Positions count from the first letter of the chain named. One block for each molecule: values may come before it. Positions of bridges follow the written chain, without caps; N, C: chain ends. No end group written: not given here.

What was measured:
Met = Met (Homo sapiens, UniProt P08581); conditions: reported; cited from earlier work
HGF-Erk-SRE pathway [1] = assay: SRE luciferase reporter assay of aMD4dY-leucine zipper fusion dimers (Example 2); type: cell-based; conditions: HEK293E cells with SRE reporter; cell-free expression reaction solution at 25- to 625-fold dilution; overnight stimulation; HGF 0 to 100 ng/mL as comparator; FIGS. 8-13
Protocol: (§1) The dimer of each aMD4dY-leucine zipper fusion was evaluated by luciferase assay. To 25 μL of Opti-MEM medium (Thermo Fisher Scientific), 0.6 μL of Attractene Transfection Reagent (QIAGEN) was added and incubated at room temperature for 5 minutes. To the above mixed solution, a mixed solution of 25 μL of Opti-MEM and 1 μL of SRE reporter vector (QIAGEN) was added and incubated at room temperature for 20 minutes. This mixed solution was added to a 96-well plate, HEK293E cells were seeded thereon at 40,000 cells/well, and incubated overnight at 37° C. in a 5% CO2 incubator. After transfection, all the culture supernatant was removed, and 100 μL of Opti-MEM medium (evaluation basal medium), containing 0.5% FBS (Thermo Fisher Scientific), 1% non-essential amino acid solution (Thermo Fisher Scientific), and penicillin-streptomycin (Nacalai Tesque), was added thereto, which was cultured at 37° C. for 4 hours to starve the cells.
(§2) To the evaluation basal medium, 0 to 100 ng/mL HGF was added, or the cell-free expression reaction solution was added at a 25- to 625-fold dilution with respect to the medium, and 100 μL of the evaluation basal medium was added to the cells. The cells were stimulated by culturing overnight at 37° C. in a 5% CO2 incubator.
(§3) Dual-Luciferase Reporter Assay System (Promega) was used for signal intensity detection. The medium supernatant in an amount of 100 μL was removed, 50 μL of Glo reagent was added, and cells were lysed at room temperature for 10 minutes. Activation of the HGF-Erk-SRE pathway was quantified by detecting Firefly luciferase luminescence from cell lysates with a plate reader. Subsequently, 50 μL of Glo & Stop reagent solution was added, and after 10 minutes, luminescence of Renilla luciferase, an internal standard, was detected to quantify the cell count. The signal activity of each sample was quantified as SRE activity=(luminescence intensity of Firefly luciferase)/(luminescence intensity of Renilla luciferase). A signal activity value relative to a sample without an addition of evaluation compound was obtained and defined as relative reporter activity.

[2] = target: T1, Recombinant Human HGFR/c-MET Fc Chimera Protein (R&D systems, 8614-MT-100) (human, UniProt P08581 25-932); assay: ribosome display selection on c-MET Fc chimera on magnetic beads, from a 1:50:50 DNA mix; DNA length analysis of the recovered cDNA
T1 construct: Bought reagent; also called c-Met immobilized on magnetic beads; Fc part of the bought chimera not given
T1 sequence (P08581 25-932, change not shown): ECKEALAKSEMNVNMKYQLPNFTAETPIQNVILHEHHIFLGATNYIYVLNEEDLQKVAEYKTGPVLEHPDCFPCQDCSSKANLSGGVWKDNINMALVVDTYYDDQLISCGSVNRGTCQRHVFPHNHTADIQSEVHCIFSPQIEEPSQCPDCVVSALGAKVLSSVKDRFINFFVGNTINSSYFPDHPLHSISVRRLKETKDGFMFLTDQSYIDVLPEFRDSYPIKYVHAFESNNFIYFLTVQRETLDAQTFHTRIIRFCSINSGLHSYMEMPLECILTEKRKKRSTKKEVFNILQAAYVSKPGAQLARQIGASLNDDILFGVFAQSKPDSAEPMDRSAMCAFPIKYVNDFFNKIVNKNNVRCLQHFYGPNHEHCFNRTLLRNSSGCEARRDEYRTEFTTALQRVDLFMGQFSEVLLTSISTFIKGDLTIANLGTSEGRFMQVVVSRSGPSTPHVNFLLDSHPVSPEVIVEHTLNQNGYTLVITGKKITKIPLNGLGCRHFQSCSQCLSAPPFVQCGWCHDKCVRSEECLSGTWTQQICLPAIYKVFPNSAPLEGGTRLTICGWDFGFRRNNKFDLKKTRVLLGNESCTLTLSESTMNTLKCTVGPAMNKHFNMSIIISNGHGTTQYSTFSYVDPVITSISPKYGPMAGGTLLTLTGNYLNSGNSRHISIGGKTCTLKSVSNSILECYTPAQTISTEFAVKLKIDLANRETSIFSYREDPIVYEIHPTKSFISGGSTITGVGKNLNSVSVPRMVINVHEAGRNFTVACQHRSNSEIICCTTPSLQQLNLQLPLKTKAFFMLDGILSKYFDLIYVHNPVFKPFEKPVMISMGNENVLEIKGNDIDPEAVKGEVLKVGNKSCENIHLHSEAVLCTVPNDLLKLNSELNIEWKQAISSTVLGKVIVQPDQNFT

EpoR = EpoR (Homo sapiens, UniProt P19235); assay: PathHunter eXpress EpoR-JAK2 Functional Assay of EMP-leucine zipper fusion dimer (Example 3); type: cell-based; conditions: diluted cell-free expression reaction solution; 3 hours stimulation; No DNA negative control; FIG. 14
Sequence of EpoR (P19235 25-508): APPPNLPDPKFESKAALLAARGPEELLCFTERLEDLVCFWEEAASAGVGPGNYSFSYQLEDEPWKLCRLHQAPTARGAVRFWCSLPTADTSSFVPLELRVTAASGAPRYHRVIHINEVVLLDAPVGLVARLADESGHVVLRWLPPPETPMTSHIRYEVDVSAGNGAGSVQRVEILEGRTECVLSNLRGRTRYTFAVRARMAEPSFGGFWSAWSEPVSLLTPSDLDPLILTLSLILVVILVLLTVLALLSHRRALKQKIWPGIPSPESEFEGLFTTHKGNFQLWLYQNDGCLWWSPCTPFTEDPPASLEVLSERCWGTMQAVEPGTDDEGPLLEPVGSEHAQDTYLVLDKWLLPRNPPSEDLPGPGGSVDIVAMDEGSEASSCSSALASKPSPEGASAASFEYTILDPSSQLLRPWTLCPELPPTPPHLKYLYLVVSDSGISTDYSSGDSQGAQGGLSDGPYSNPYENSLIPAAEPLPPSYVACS
Sequence of EpoR (O60674 whole entry partner, the tested form may be a part): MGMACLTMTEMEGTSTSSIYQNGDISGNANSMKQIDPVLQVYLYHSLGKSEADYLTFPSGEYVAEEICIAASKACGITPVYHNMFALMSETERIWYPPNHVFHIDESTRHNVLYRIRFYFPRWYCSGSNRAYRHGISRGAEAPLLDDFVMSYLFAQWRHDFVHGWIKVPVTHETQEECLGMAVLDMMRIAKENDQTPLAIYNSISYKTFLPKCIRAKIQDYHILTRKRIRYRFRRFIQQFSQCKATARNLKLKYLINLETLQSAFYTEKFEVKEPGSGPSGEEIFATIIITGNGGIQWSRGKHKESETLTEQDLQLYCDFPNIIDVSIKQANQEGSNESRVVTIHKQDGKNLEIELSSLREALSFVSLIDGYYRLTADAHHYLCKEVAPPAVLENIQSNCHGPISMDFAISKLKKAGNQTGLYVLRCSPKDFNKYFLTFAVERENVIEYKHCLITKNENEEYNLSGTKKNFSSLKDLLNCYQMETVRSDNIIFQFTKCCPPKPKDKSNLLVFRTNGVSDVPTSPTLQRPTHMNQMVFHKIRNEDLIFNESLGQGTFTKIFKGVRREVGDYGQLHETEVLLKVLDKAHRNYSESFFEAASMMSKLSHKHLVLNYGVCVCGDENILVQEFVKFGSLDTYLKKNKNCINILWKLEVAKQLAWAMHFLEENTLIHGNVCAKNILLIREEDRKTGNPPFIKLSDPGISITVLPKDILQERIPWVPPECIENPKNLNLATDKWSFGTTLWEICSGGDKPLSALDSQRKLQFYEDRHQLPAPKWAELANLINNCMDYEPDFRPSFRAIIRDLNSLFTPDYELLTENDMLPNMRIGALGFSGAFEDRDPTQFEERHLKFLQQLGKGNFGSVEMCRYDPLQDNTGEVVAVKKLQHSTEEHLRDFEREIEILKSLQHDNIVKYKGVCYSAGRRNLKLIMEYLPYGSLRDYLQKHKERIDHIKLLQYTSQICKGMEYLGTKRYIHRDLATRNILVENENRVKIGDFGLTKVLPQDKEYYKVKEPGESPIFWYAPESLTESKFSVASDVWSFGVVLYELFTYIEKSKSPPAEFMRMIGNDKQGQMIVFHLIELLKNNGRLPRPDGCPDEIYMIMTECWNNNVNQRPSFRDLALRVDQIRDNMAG
Protocol: The ability of the EMP-leucine zipper fusion dimer to activate EpoR was assessed using PathHunter® eXpress EpoR-JAK2 Functional Assay Kit (DiscoveRx).
Cells for EPO activity evaluation contained in the PathHunter® eXpress EpoR-JAK2 Functional Assay Kit were seeded in a 96-well plate and cultured for 24 hours at 37° C. under 5% CO2. A cell-free expression reaction solution containing the EMP-leucine zipper fusion were diluted and added to the cells. […] To the cells stimulated at room temperature for 3 hours, the prepared Substrate Reagent was added and incubated for 60 minutes. Chemiluminescence intensity was quantified with a Nivo plate reader (Perkin Elmer).

[3] = target: T2, Recombinant Human Erythropoietin R Fc Chimera Protein, CF (R&D systems, 963-ER-50) (human, UniProt P19235 25-250); assay: ribosome display selection on Erythropoietin R Fc chimera on magnetic beads, from a 1:50:50 DNA mix; DNA length analysis of the recovered cDNA
T2 construct: Bought reagent; also called EPO receptor immobilized on magnetic beads; Fc part of the bought chimera not given
T2 sequence (looked up): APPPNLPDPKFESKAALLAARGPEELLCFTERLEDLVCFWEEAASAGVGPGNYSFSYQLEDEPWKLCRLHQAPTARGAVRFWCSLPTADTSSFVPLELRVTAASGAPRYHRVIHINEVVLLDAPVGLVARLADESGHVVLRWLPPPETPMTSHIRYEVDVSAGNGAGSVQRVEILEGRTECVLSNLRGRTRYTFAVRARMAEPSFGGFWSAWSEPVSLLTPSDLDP

HGF-Erk-SRE pathway [4] = assay: SRE luciferase reporter assay of cell-free translation products from ribosome display DNAs (Example 4); type: cell-based; conditions: HEK293E cells with SRE reporter; cell-free translation product at 25- to 625-fold dilution; HGF comparator; FIG. 16
Protocol: For cell-free translation, to 20 ng of each DNA, 2.5 μL of Solution I, 0.25 μL of Solution II, 0.5 μL of Solution III, and 1.75 μL of water were added, and the mixture was incubated at 37° C. for 6 hours to carry out the translation reaction.
as §1, with “Reporter assays were carried out as follows.” for “The dimer of each aMD4dY-leucine zipper fusion was evaluated by luciferase assay.”
as §2, with “or the above cell-free expression” for “or the cell-free expression”
as §3, with “The medium supernatant in an amount of 100 μL was removed, 50 μL of Glo reagent was added, and cells were lysed at room temperature for 10 minutes.” left out, “A signal activity value relative to a sample without an addition of evaluation compound was obtained and defined as relative reporter activity.” left out

Sequence of Met (P08581 25-1390): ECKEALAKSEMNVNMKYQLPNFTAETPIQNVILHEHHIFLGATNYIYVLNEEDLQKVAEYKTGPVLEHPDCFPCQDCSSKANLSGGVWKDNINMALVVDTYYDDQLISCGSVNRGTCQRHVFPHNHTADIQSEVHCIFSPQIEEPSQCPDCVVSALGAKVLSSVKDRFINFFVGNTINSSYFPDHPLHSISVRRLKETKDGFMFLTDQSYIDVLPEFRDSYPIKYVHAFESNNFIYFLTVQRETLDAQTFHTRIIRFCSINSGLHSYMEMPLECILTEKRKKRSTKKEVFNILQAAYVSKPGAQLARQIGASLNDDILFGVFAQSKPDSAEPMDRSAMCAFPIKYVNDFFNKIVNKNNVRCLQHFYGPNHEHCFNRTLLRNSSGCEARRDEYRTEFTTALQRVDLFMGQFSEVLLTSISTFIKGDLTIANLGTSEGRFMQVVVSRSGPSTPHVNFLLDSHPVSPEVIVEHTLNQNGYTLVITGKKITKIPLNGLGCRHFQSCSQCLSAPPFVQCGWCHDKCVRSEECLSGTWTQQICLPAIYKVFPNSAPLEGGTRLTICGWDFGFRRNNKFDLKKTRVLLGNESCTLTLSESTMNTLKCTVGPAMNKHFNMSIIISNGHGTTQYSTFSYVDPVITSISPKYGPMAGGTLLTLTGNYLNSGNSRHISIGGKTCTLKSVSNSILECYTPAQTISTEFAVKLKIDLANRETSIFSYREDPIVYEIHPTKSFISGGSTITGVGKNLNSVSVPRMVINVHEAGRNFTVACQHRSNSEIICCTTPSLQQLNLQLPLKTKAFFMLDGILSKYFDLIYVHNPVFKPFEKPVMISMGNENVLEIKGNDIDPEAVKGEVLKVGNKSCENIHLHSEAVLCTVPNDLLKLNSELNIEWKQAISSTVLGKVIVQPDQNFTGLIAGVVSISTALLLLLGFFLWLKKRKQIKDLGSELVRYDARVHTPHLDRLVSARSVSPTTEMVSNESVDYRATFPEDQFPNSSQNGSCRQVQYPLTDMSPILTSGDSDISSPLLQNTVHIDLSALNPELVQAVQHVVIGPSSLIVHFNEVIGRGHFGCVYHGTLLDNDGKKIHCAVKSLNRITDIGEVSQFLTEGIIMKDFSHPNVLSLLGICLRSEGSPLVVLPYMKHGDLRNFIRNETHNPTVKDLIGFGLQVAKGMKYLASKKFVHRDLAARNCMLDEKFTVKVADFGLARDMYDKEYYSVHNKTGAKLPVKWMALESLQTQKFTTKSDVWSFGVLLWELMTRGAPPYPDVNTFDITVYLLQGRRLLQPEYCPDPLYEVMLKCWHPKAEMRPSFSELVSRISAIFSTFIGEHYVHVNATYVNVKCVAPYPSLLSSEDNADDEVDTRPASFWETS

- relative reporter activity (SRE activity) (HGF-Erk-SRE pathway [1]): found to have signal activation ability
B3: cys-Jun-PA8-aMD4dY: aMD4dY-leucine zipper fusion, SEQ ID NO: 50 (protein)
chain: MGGCGGRIARLEEKVKTLKAQNSELASTANMLREQVAQLKQKVMNAAPAAPAPACRQFNRRTHEVWNLDC
modifications: disulfide 55-70

- binding result [2]: binds
B4: aMD4dY-Jun-cys-N11-SecM-GS3 (designed binder)
chain: MAETCRQFNRRTHEVWNLDCGAAPAAPAPAAGGRIARLEEKVKTLKAQNSELASTANMLREQVAQLKQKVMNGCGGKDHLIHNHHKHEHAHAEHLFSTPVWISQAQGIRAGGSGSGS
modifications: cyclic peptide part closed by a disulfide bond between its two Cys
notes: In the reporter assays it was a free cell-free translation product

- ability to activate EpoR (relative receptor activity, chemiluminescence) (EpoR): activated EpoR
B5: EMP-PA8-cys-Jun: EMP-leucine zipper fusion, SEQ ID NO: 67 (protein)
chain: MGGLYACHMGPMTWVCQPLRGAAPAAPAPAAGCGGRIARLEEKVKTLKAQNSELASTANMLREQVAQLKQKVMN
modifications: EMP-PA8-cys-Jun; DISULFID 7..16 Disulfide bridge between Cys-7 and Cys-16

- relative reporter activity (SRE activity) (HGF-Erk-SRE pathway [1]): found to have signal activation ability
B6: Jun-cys-PA8-aMD4dY: aMD4dY-leucine zipper fusion, SEQ ID NO: 51 (protein)
chain: MGRIARLEEKVKTLKAQNSELASTANMLREQVAQLKQKVMNGGCGGAAPAAPAPACRQFNRRTHEVWNLDC
modifications: Jun-cys-PA8-aMD4dY; DISULFID 56..71 Disulfide bridge between Cys-56 and Cys-71

- relative reporter activity (SRE activity) (HGF-Erk-SRE pathway [1]): showed activity comparable to HGF
B8: aMD4dY-PA8-cys-Jun: aMD4dY-leucine zipper fusion polypeptide, SEQ ID NO: 45, cell-free expressed, forms disulfide dimer (protein)
chain: MAETCRQFNRRTHEVWNLDCGAAPAAPAPAAGCGGRIARLEEKVKTLKAQNSELASTANMLREQVAQLKQKVMN
modifications: disulfide dimer; aMD4dY-PA8-cys-Jun; DISULFID 5..20 Disulfide bridge between Cys-5 and Cys-20

- relative reporter activity (SRE activity) (HGF-Erk-SRE pathway [1]): activity was also exhibited
B9: aMD4dY-PA8-cys-JunΔhep: aMD4dY fusion with c-Jun zipper having heparin binding ability removed, SEQ ID NO: 47 (protein)
chain: B8 chain with R36Q, R39Q, K45Q, K48Q
modifications: aMD4dY-PA8-cys-Junhep; DISULFID 5..20 Disulfide bridge between Cys-5 and Cys-20

Continued, molecule first:

Molecule: CRQFNRRTHEVWNLDC (disulfide 1-16) [aMD4dY]
- HGF-like activity (Met agonist) when dimerized (Met): exhibits an HGF-like activity

B1: aMD4dY-PA8-Jun: aMD4dY-leucine zipper fusion without cysteine residue, SEQ ID NO: 46 (protein)
chain: MAETCRQFNRRTHEVWNLDCGAAPAAPAPAAGGGRIARLEEKVKTLKAQNSELASTANMLREQVAQLKQKVMN
modifications: aMD4dY-PA8-Jun; DISULFID 5..20 Disulfide bridge between Cys-5 and Cys-20
- relative reporter activity (SRE activity) (HGF-Erk-SRE pathway [1]): did not show activity

B2: aMD4dY-PA8-cys-CEBPα: aMD4dY-CEBPα leucine zipper fusion, SEQ ID NO: 49 (protein)
chain: MAETCRQFNRRTHEVWNLDCGAAPAAPAPAAGCGGRNVETQQKVLELTSDNDRLRKRVEQLSRELDTLRGIFRQ
modifications: aMD4dY-PA8-cys-CEBP; DISULFID 5..20 Disulfide bridge between Cys-5 and Cys-20
- relative reporter activity (SRE activity) (HGF-Erk-SRE pathway [1]): found to have signal activation ability

B7: EMP-Jun-cys-N11-SecM-GS3 (designed binder)
chain: MAETGGLYACHMGPMTWVCQPLRGAAPAAPAPAAGGRIARLEEKVKTLKAQNSELASTANMLREQVAQLKQKVMNGCGGKDHLIHNHHKHEHAHAEHLFSTPVWISQAQGIRAGGSGSGS
modifications: cyclic peptide part closed by a disulfide bond between its two Cys
notes: In the PathHunter assay it was a free cell-free translation product
- binding result [3]: binds

B10: EMP′-Jun-cys-N11-SecM-GS3: erythropoietin receptor binding cyclic peptide (EMP′)-leucine zipper fusion, SEQ ID NO: 73 (protein)
chain: MAETCHMGPMTWVCGAAPAAPAPAAGGRIARLEEKVKTLKAQNSELASTANMLREQVAQLKQKVMNGCGGKDHLIHNHHKHEHAHAEHLFSTPVWISQAQGIRAGGSGSGS
modifications: cyclic peptide disulfide; EMP'-Jun-cys-N11-SecM-GS3; DISULFID 5..14 Disulfide bridge between Cys-5 and Cys-14
- relative SRE reporter activity (relative receptor activity) (HGF-Erk-SRE pathway [4]): only aMD4dY-Jun-cys-N11-SecM-GS3 showed activity

B11: TPO-Jun-cys-N11-SecM-GS3: thrombopoietin receptor binding cyclic peptide-leucine zipper fusion, SEQ ID NO: 72 (protein)
chain: MAETCADGPTLREWISFCGAAPAAPAPAAGGRIARLEEKVKTLKAQNSELASTANMLREQVAQLKQKVMNGCGGKDHLIHNHHKHEHAHAEHLFSTPVWISQAQGIRAGGSGSGS
modifications: cyclic peptide disulfide; TPO-Jun-cys-N11-SecM-GS3; DISULFID 5..18 Disulfide bridge between Cys-5 and Cys-18
- relative SRE reporter activity (relative receptor activity) (HGF-Erk-SRE pathway [4]): only aMD4dY-Jun-cys-N11-SecM-GS3 showed activity
